The target in test [1] is HMGB1 lacking the acidic C-tail (HMGB1ΔC, residues 1-185) (rat).
For test [2], the target named is HMGB1 protein, wild-type, reduced (residues 1-214) (rat).

HMGB1 lacking the acidic C-tail (HMGB1ΔC, residues 1-185) (rat), sequence (P09429 1-185, stated change not applied): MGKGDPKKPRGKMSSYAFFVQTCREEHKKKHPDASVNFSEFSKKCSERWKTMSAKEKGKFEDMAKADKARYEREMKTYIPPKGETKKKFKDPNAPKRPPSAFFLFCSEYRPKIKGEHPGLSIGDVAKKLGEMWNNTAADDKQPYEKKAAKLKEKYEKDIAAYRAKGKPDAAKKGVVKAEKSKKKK

Take “Recombinant mouse histone H1° (referred to as histone H1) (from UniProt P10922 1-194) (natural protein)”: in test [1], the inhibition of HMGB1ΔC-mediated DNA bending (ligase-mediated circularization of a 123-bp DNA; 50 nM reduced HMGB1ΔC, 1-15 nM H1) was found to be 40%. In test [2], this substance displayed an inhibition of HMGB1-mediated DNA bending (ligase-mediated circularization of a 123-bp DNA; 50 nM reduced HMGB1, 1-15 nM H1) of 90%.

Values taken from paper PMC4583294.
